Starred links: 1 amine or outer side, 2 acyl side, 3 side chain; linkers in the order of their positions; H or OH if unused. Non-standard residues stand in square brackets, D forms with d. Groups on a side chain read outwards from the residue. No end group written: not given here. *: point of attachment. C18 diacid = O=C(O)CCCCCCCCCCCCCCCCC(=O)*; γGlu = O=C(O)[C@H](CCC(=O)[*:2])N[*:1]; Ac4c = NC1(C(=O)O)CCC1; AEEA = NCCOCCOCC(=O)O; Aib = CC(C)(N)C(=O)O
Assays:
[1] = target: T1, human GLP-1 receptor (human, UniProt P43220 24-463); experiment: cell-based or functional assay
[2] = target: T2, human glucagon receptor (human, UniProt P47871 26-477); experiment: cell-based or functional assay
T2 sequence (P47871 26-477): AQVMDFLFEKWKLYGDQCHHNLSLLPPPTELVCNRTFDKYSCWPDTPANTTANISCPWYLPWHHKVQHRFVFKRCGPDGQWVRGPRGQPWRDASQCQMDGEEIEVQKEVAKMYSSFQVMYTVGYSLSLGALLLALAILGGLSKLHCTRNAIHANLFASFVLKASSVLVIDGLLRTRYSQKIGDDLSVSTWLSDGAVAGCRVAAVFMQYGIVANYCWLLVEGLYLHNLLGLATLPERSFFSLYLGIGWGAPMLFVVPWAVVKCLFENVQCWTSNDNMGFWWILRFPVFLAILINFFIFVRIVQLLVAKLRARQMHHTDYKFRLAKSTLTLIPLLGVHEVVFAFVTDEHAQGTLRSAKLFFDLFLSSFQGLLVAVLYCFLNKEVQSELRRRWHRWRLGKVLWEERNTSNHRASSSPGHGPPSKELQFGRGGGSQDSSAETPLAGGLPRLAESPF

[3] = target: T1, human GLP-1 receptor; experiment: displacement of [125I]-GLP-1-(7-36)NH2 from BHK membranes with human GLP-1R, SPA, no serum albumin
[4] = target: T2, human glucagon receptor; experiment: displacement of [125I]-glucagon from BHK membranes with human glucagon receptor, SPA, no serum albumin

Row | Binder | GLP-1R EC50 (pM) [Assay (I)(a)], CRE luciferase reporter, BHK cells [1] [pM] | GlucagonR EC50 (pM), [Assay (I)(b)], CRE luciferase reporter, BHK cells [2] [pM] | IC50 [3] [nM] | IC50 [4] [nM]
1 | H[Aib]QGTFTSDLSKYLDARRARDFVQWLIK([AEEA-AEEA-γGlu-γGlu-γGlu-C18 diacid])T-NH2 (N-terminus assumed; SMILES CC[C@H](C)[C@H](NC(=O)[C@H](CC(C)C)NC(=O)[C@H](Cc1c[nH]c2ccccc12)NC(=O)[C@H](CCC(N)=O)NC(=O)[C@@H](NC(=O)[C@H](Cc1ccccc1)NC(=O)[C@H](CC(=O)O)NC(=O)[C@H](CCCNC(=N)N)NC(=O)[C@H](C)NC(=O)[C@H](CCCNC(=N)N)NC(=O)[C@H](CCCNC(=N)N)NC(=O)[C@H](C)NC(=O)[C@H](CC(=O)O)NC(=O)[C@H](CC(C)C)NC(=O)[C@H](Cc1ccc(O)cc1)NC(=O)[C@H](CCCCN)NC(=O)[C@H](CO)NC(=O)[C@H](CC(C)C)NC(=O)[C@H](CC(=O)O)NC(=O)[C@H](CO)NC(=O)[C@@H](NC(=O)[C@H](Cc1ccccc1)NC(=O)[C@@H](NC(=O)CNC(=O)[C@H](CCC(N)=O)NC(=O)C(C)(C)NC(=O)[C@@H](N)Cc1c[nH]cn1)[C@@H](C)O)[C@@H](C)O)C(C)C)C(=O)N[C@@H](CCCCNC(=O)COCCOCCNC(=O)COCCOCCNC(=O)CC[C@H](NC(=O)CC[C@H](NC(=O)CC[C@H](NC(=O)CCCCCCCCCCCCCCCCC(=O)O)C(=O)O)C(=O)O)C(=O)O)C(=O)N[C@H](C(N)=O)[C@@H](C)O, also called Chem. 5; Chem 5) | 5.5 | 29 | 0.1 | 6.7
2 | H[Aib]QGTFTSDYSKYLESRRARDFVK([AEEA-AEEA-γGlu-γGlu-γGlu-C18 diacid])WLIST-NH2 (N-terminus assumed; SMILES CC[C@H](C)[C@H](NC(=O)[C@H](CC(C)C)NC(=O)[C@H](Cc1c[nH]c2ccccc12)NC(=O)[C@H](CCCCNC(=O)COCCOCCNC(=O)COCCOCCNC(=O)CC[C@H](NC(=O)CC[C@H](NC(=O)CC[C@H](NC(=O)CCCCCCCCCCCCCCCCC(=O)O)C(=O)O)C(=O)O)C(=O)O)NC(=O)[C@@H](NC(=O)[C@H](Cc1ccccc1)NC(=O)[C@H](CC(=O)O)NC(=O)[C@H](CCCNC(=N)N)NC(=O)[C@H](C)NC(=O)[C@H](CCCNC(=N)N)NC(=O)[C@H](CCCNC(=N)N)NC(=O)[C@H](CO)NC(=O)[C@H](CCC(=O)O)NC(=O)[C@H](CC(C)C)NC(=O)[C@H](Cc1ccc(O)cc1)NC(=O)[C@H](CCCCN)NC(=O)[C@H](CO)NC(=O)[C@H](Cc1ccc(O)cc1)NC(=O)[C@H](CC(=O)O)NC(=O)[C@H](CO)NC(=O)[C@@H](NC(=O)[C@H](Cc1ccccc1)NC(=O)[C@@H](NC(=O)CNC(=O)[C@H](CCC(N)=O)NC(=O)C(C)(C)NC(=O)[C@@H](N)Cc1c[nH]cn1)[C@@H](C)O)[C@@H](C)O)C(C)C)C(=O)N[C@@H](CO)C(=O)N[C@H](C(N)=O)[C@@H](C)O, also called Chem. 11; Chem 11) | 8 | 428 | 0.5 | 52
3 | H[Ac4c]QGTFTSDVSKYLESRRAREFVQWLIK([γGlu-γGlu-AEEA-AEEA-γGlu-γGlu-C18 diacid])T-NH2 (N-terminus assumed; SMILES CC[C@H](C)[C@H](NC(=O)[C@H](CC(C)C)NC(=O)[C@H](Cc1c[nH]c2ccccc12)NC(=O)[C@H](CCC(N)=O)NC(=O)[C@@H](NC(=O)[C@H](Cc1ccccc1)NC(=O)[C@H](CCC(=O)O)NC(=O)[C@H](CCCNC(=N)N)NC(=O)[C@H](C)NC(=O)[C@H](CCCNC(=N)N)NC(=O)[C@H](CCCNC(=N)N)NC(=O)[C@H](CO)NC(=O)[C@H](CCC(=O)O)NC(=O)[C@H](CC(C)C)NC(=O)[C@H](Cc1ccc(O)cc1)NC(=O)[C@H](CCCCN)NC(=O)[C@H](CO)NC(=O)[C@@H](NC(=O)[C@H](CC(=O)O)NC(=O)[C@H](CO)NC(=O)[C@@H](NC(=O)[C@H](Cc1ccccc1)NC(=O)[C@@H](NC(=O)CNC(=O)[C@H](CCC(N)=O)NC(=O)C1(NC(=O)[C@@H](N)Cc2c[nH]cn2)CCC1)[C@@H](C)O)[C@@H](C)O)C(C)C)C(C)C)C(=O)N[C@@H](CCCCNC(=O)CC[C@H](NC(=O)CC[C@H](NC(=O)COCCOCCNC(=O)COCCOCCNC(=O)CC[C@H](NC(=O)CC[C@H](NC(=O)CCCCCCCCCCCCCCCCC(=O)O)C(=O)O)C(=O)O)C(=O)O)C(=O)O)C(=O)N[C@H](C(N)=O)[C@@H](C)O, also called Chem. 19; Chem 19) | 6 | 37 | – | 2.5
4 | H[Aib]QGTFTSDYSKYLDARRARDFVK([AEEA-AEEA-γGlu-γGlu-γGlu-C18 diacid])WLIST-NH2 (N-terminus assumed; SMILES CC[C@H](C)[C@H](NC(=O)[C@H](CC(C)C)NC(=O)[C@H](Cc1c[nH]c2ccccc12)NC(=O)[C@H](CCCCNC(=O)COCCOCCNC(=O)COCCOCCNC(=O)CC[C@H](NC(=O)CC[C@H](NC(=O)CC[C@H](NC(=O)CCCCCCCCCCCCCCCCC(=O)O)C(=O)O)C(=O)O)C(=O)O)NC(=O)[C@@H](NC(=O)[C@H](Cc1ccccc1)NC(=O)[C@H](CC(=O)O)NC(=O)[C@H](CCCNC(=N)N)NC(=O)[C@H](C)NC(=O)[C@H](CCCNC(=N)N)NC(=O)[C@H](CCCNC(=N)N)NC(=O)[C@H](C)NC(=O)[C@H](CC(=O)O)NC(=O)[C@H](CC(C)C)NC(=O)[C@H](Cc1ccc(O)cc1)NC(=O)[C@H](CCCCN)NC(=O)[C@H](CO)NC(=O)[C@H](Cc1ccc(O)cc1)NC(=O)[C@H](CC(=O)O)NC(=O)[C@H](CO)NC(=O)[C@@H](NC(=O)[C@H](Cc1ccccc1)NC(=O)[C@@H](NC(=O)CNC(=O)[C@H](CCC(N)=O)NC(=O)C(C)(C)NC(=O)[C@@H](N)Cc1c[nH]cn1)[C@@H](C)O)[C@@H](C)O)C(C)C)C(=O)N[C@@H](CO)C(=O)N[C@H](C(N)=O)[C@@H](C)O, also called Chem. 1; Chem 1) | 3.5 | 17.5 | 0.9 | 11.3
5 | H[Aib]QGTFTSDLSKYLDARRARDFVQWLIK([γGlu-γGlu-γGlu-C18 diacid])T-NH2 (also called Chem. 15; Chem 15) | 4 | 7 | – | 1.7

— patent US20170101454A1 (Novo Nordisk, published 2017)
